Source: patent US20150344570A1 (published 2015)

T1: FcγRIIa R (human, UniProt P12318 34-217)
T1 construct: extracellular domain; also called FcgRIIa R type; 2aR
T1 sequence (looked up): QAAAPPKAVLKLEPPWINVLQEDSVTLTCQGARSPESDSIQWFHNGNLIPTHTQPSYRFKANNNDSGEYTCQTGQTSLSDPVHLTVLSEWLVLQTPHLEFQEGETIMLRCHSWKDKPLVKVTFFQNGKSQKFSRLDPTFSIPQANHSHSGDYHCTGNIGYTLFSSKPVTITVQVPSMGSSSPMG


These binders were tested against T1, FcγRIIa R (assay: SPR (Biacore), captured antibody, FcγR as analyte; relative binding activity).

He/Con_2aR | Binder
112 % (GpH7-A5/GpH7-B3/GpL16-k0 = 100) | GpH7-A5/GpH7-B3 variant L234_10E/GpL16-k0 (antibody, human IgG1, kappa, also called He Ab L234_10E) heavy 1: not shown heavy 2: not shown light: DIVMTQSPLSLPVTPGEPASISCQASESLVHSNRNTYLHWYLQKPGQSPQLLIYKVSNRFSGVPDRFSGSGSGTDFTLKISRVEAEDVGVYYCSQNTHVPPTFGQGTKVEIERTVAAPSVFIFPPSDEQLKSGTASVVCLLNNFYPREAKVQWKVDNALQSGNSQESVTEQDSKDSTYSLSSTLTLSKADYEKHKVYACEVTHQGLSSPVTKSFNRGEC
119 % (GpH7-A5/GpH7-B3/GpL16-k0 = 100) | GpH7-A5/GpH7-B3 variant L328_09D/GpL16-k0 (antibody, human IgG1, kappa, also called He Ab L328_09D) heavy 1: not shown heavy 2: not shown light: DIVMTQSPLSLPVTPGEPASISCQASESLVHSNRNTYLHWYLQKPGQSPQLLIYKVSNRFSGVPDRFSGSGSGTDFTLKISRVEAEDVGVYYCSQNTHVPPTFGQGTKVEIERTVAAPSVFIFPPSDEQLKSGTASVVCLLNNFYPREAKVQWKVDNALQSGNSQESVTEQDSKDSTYSLSSTLTLSKADYEKHKVYACEVTHQGLSSPVTKSFNRGEC
119 % (GpH7-A5/GpH7-B3/GpL16-k0 = 100) | GpH7-A5/GpH7-B3 variant L328_14T/GpL16-k0 (antibody, human IgG1, kappa, also called He Ab L328_14T) heavy 1: not shown heavy 2: not shown light: DIVMTQSPLSLPVTPGEPASISCQASESLVHSNRNTYLHWYLQKPGQSPQLLIYKVSNRFSGVPDRFSGSGSGTDFTLKISRVEAEDVGVYYCSQNTHVPPTFGQGTKVEIERTVAAPSVFIFPPSDEQLKSGTASVVCLLNNFYPREAKVQWKVDNALQSGNSQESVTEQDSKDSTYSLSSTLTLSKADYEKHKVYACEVTHQGLSSPVTKSFNRGEC
133 % (GpH7-A5/GpH7-B3/GpL16-k0 = 100) | GpH7-A5/GpH7-B3 variant N325_07I/GpL16-k0 (antibody, human IgG1, kappa, also called He Ab N325_07I) heavy 1: not shown heavy 2: not shown light: DIVMTQSPLSLPVTPGEPASISCQASESLVHSNRNTYLHWYLQKPGQSPQLLIYKVSNRFSGVPDRFSGSGSGTDFTLKISRVEAEDVGVYYCSQNTHVPPTFGQGTKVEIERTVAAPSVFIFPPSDEQLKSGTASVVCLLNNFYPREAKVQWKVDNALQSGNSQESVTEQDSKDSTYSLSSTLTLSKADYEKHKVYACEVTHQGLSSPVTKSFNRGEC
105 % (GpH7-A5/GpH7-B3/GpL16-k0 = 100) | GpH7-A5/GpH7-B3 variant N325_10E/GpL16-k0 (antibody, human IgG1, kappa, also called He Ab N325_10E) heavy 1: not shown heavy 2: not shown light: DIVMTQSPLSLPVTPGEPASISCQASESLVHSNRNTYLHWYLQKPGQSPQLLIYKVSNRFSGVPDRFSGSGSGTDFTLKISRVEAEDVGVYYCSQNTHVPPTFGQGTKVEIERTVAAPSVFIFPPSDEQLKSGTASVVCLLNNFYPREAKVQWKVDNALQSGNSQESVTEQDSKDSTYSLSSTLTLSKADYEKHKVYACEVTHQGLSSPVTKSFNRGEC
105 % (GpH7-A5/GpH7-B3/GpL16-k0 = 100) | GpH7-A5/GpH7-B3 variant N325_14T/GpL16-k0 (antibody, human IgG1, kappa, also called He Ab N325_14T) heavy 1: not shown heavy 2: not shown light: DIVMTQSPLSLPVTPGEPASISCQASESLVHSNRNTYLHWYLQKPGQSPQLLIYKVSNRFSGVPDRFSGSGSGTDFTLKISRVEAEDVGVYYCSQNTHVPPTFGQGTKVEIERTVAAPSVFIFPPSDEQLKSGTASVVCLLNNFYPREAKVQWKVDNALQSGNSQESVTEQDSKDSTYSLSSTLTLSKADYEKHKVYACEVTHQGLSSPVTKSFNRGEC
131 % (GpH7-A5/GpH7-B3/GpL16-k0 = 100) | GpH7-A5/GpH7-B3 variant L235_20W/GpL16-k0 (antibody, human IgG1, kappa, also called He Ab L235_20W) heavy 1: not shown heavy 2: not shown light: DIVMTQSPLSLPVTPGEPASISCQASESLVHSNRNTYLHWYLQKPGQSPQLLIYKVSNRFSGVPDRFSGSGSGTDFTLKISRVEAEDVGVYYCSQNTHVPPTFGQGTKVEIERTVAAPSVFIFPPSDEQLKSGTASVVCLLNNFYPREAKVQWKVDNALQSGNSQESVTEQDSKDSTYSLSSTLTLSKADYEKHKVYACEVTHQGLSSPVTKSFNRGEC
134 % (GpH7-A5/GpH7-B3/GpL16-k0 = 100) | GpH7-A5/GpH7-B3 variant N325_20W/GpL16-k0 (antibody, human IgG1, kappa, also called He Ab N325_20W) heavy 1: not shown heavy 2: not shown light: DIVMTQSPLSLPVTPGEPASISCQASESLVHSNRNTYLHWYLQKPGQSPQLLIYKVSNRFSGVPDRFSGSGSGTDFTLKISRVEAEDVGVYYCSQNTHVPPTFGQGTKVEIERTVAAPSVFIFPPSDEQLKSGTASVVCLLNNFYPREAKVQWKVDNALQSGNSQESVTEQDSKDSTYSLSSTLTLSKADYEKHKVYACEVTHQGLSSPVTKSFNRGEC
129 % (GpH7-A5/GpH7-B3/GpL16-k0 = 100) | GpH7-A5/GpH7-B3 variant L235_15Y/GpL16-k0 (antibody, human IgG1, kappa, also called He Ab L235_15Y) heavy 1: not shown heavy 2: not shown light: DIVMTQSPLSLPVTPGEPASISCQASESLVHSNRNTYLHWYLQKPGQSPQLLIYKVSNRFSGVPDRFSGSGSGTDFTLKISRVEAEDVGVYYCSQNTHVPPTFGQGTKVEIERTVAAPSVFIFPPSDEQLKSGTASVVCLLNNFYPREAKVQWKVDNALQSGNSQESVTEQDSKDSTYSLSSTLTLSKADYEKHKVYACEVTHQGLSSPVTKSFNRGEC
117 % (GpH7-A5/GpH7-B3/GpL16-k0 = 100) | GpH7-A5/GpH7-B3 variant L328_13S/GpL16-k0 (antibody, human IgG1, kappa, also called He Ab L328_13S) heavy 1: not shown heavy 2: not shown light: DIVMTQSPLSLPVTPGEPASISCQASESLVHSNRNTYLHWYLQKPGQSPQLLIYKVSNRFSGVPDRFSGSGSGTDFTLKISRVEAEDVGVYYCSQNTHVPPTFGQGTKVEIERTVAAPSVFIFPPSDEQLKSGTASVVCLLNNFYPREAKVQWKVDNALQSGNSQESVTEQDSKDSTYSLSSTLTLSKADYEKHKVYACEVTHQGLSSPVTKSFNRGEC
116 % (GpH7-A5/GpH7-B3/GpL16-k0 = 100) | GpH7-A5/GpH7-B3 variant N325_09D/GpL16-k0 (antibody, human IgG1, kappa, also called He Ab N325_09D) heavy 1: not shown heavy 2: not shown light: DIVMTQSPLSLPVTPGEPASISCQASESLVHSNRNTYLHWYLQKPGQSPQLLIYKVSNRFSGVPDRFSGSGSGTDFTLKISRVEAEDVGVYYCSQNTHVPPTFGQGTKVEIERTVAAPSVFIFPPSDEQLKSGTASVVCLLNNFYPREAKVQWKVDNALQSGNSQESVTEQDSKDSTYSLSSTLTLSKADYEKHKVYACEVTHQGLSSPVTKSFNRGEC
